Data set [1] has as its system NasR wild type (Klebsiella oxytoca). Description: fluorescence anisotropy. Particulars: 50 mM HEPES pH 7.5, 100 mM KCl, 1 mM MgCl2, with or without 1 mM KNO3; 50 nM Cy3-RNA final; 30 min in the dark, temperature not stated; Hill fit. In general terms: Fluorescence polarisation rises when a labelled molecule tumbles more slowly, as on binding a larger partner.
Data set [2] concerns NasR K347R (Klebsiella oxytoca). Nature of the data set: fluorescence anisotropy. As to conditions: 50 mM HEPES pH 7.5, 100 mM KCl, 1 mM MgCl2, with or without 1 mM KNO3; 50 nM Cy3-RNA final; 30 min in the dark, temperature not stated; Hill fit.
Data set [3] concerns NasR R340K (Klebsiella oxytoca). Description: fluorescence anisotropy. Particulars: 50 mM HEPES pH 7.5, 100 mM KCl, 1 mM MgCl2, with or without 1 mM KNO3; 50 nM Cy3-RNA final; 30 min in the dark, temperature not stated; Hill fit.
Data set [4] concerns the target T1, NasR (His10-MBP-NasR) (Klebsiella oxytoca, UniProt Q48468).
T1 sequence (Q48468 1-396): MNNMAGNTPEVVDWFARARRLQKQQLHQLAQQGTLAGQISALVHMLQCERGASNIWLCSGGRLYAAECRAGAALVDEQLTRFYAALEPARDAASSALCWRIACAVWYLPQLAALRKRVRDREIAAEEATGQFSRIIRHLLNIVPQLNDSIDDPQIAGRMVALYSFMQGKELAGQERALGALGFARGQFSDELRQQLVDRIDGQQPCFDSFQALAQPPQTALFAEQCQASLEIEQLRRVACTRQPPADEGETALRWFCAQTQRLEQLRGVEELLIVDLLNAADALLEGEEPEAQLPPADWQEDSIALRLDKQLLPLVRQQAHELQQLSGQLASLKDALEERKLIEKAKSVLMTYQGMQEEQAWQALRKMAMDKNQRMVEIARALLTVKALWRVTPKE
Description: fluorescence anisotropy of Cy3-labelled P1P2 nasF leader RNA, ion titration. It is filed as biochemical. As to conditions: 8 uM protein; 50 mM HEPES pH 7.5, 100 mM KCl, 1 mM MgCl2; allosteric activator, NIT domain.

As a reminder, the Kd is a measure of binding affinity in units of concentration. Higher therefore signals a looser complex. As for P2 single-hairpin RNA, the Kd in data set [1] stood at 12 µM.
As to P1P2 two-hairpin RNA, the binding signal (fold weaker than wild type) in data set [2] and in data set [3] was 10 in each case. Besides, the Kd in data set [1] amounted to 1 µM.
With `O=NO` [nitrite], in data set [4], the “activation of RNA binding (Hill fit)” value is “RNA binding activity was only observed in conditions containing nitrate or nitrite”.
For `O=[N+]([O-])O` [nitrate], the “activation of RNA binding (Hill fit)” value in data set [4] is on record as “RNA binding activity was only observed in conditions containing nitrate or nitrite”.

Values taken from paper PMC7496416 (Molecular microbiology, 2020).
